Assay [1] has as its target T1, Staphylococcus enterotoxin B (Staphylococcus aureus, UniProt P01552 28-266).
T1 sequence: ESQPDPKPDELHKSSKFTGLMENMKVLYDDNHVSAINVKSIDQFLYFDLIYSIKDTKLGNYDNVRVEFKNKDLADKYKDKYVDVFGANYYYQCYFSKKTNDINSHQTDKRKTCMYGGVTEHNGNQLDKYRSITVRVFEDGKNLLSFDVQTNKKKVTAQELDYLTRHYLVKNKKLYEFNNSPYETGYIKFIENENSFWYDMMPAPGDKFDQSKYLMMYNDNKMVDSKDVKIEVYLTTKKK
Briefly: cell-based or functional assay.

Assay [2] addresses T1, Staphylococcus enterotoxin B.
Assay [3] has the same target. The experiment in a line: cell-based or functional assay. The source holds these as a separate data set.

Where two headings read alike, the source gives them in different places.

B1: human anti-SEB monoclonal antibody 100C9 (antibody, V domains shown)
VH: EVQLVESGGGLVQPGGSLRLSCSASGFTFSSYWMSWVRQAPGKGLEWVANIIQDGSEKYYADSVKGRLTISRDNAKNSLYLQMNSLRVDDTAVYYCARGYEGCSATRCYLYYFDYWGPGTLVTVSS
VL: SYVLTQPPSVSVSPGQTARITCSGDALPKQYTYWYQQKPGQAPVVVIYKDSERPSGIPERFSGSSSGTTVTVTISGVQAEDEADYYCQSADSSGTSLVFGGGTKLTVLG
Consider B1, for which the “EC50 of inhibition of SEB-induced IFN-γ production by human PBMC” value in assay [1] was 0.0766 µg/mL. In assay [2], this molecule displayed a Kd of 9.75 nM.

B2: human anti-SEB monoclonal antibody 79G9 (antibody, V domains shown)
VH: EVQLEESGAGLLKPSETLSLTCAVYGGSFSGYYWSWIRQAPGKGLEWIGEIDHSGTTNYNPSLKSRVTISVETSKNQFSLRLSSVTAADSAVYYCASSGYCSHGLCPQEDWGQGTLVTVSS
VL: DIELTQSPSFLSASVGDRVAITCRASQGISNYLAWYQQKPGKAPKLLIYAAFVLQSGVPSRFSGSGSGTEFTLTISNLQPEDFATYYCQQLNSYPRAFGPGTKVDIKR
Turning to B2, in assay [3], the “EC50 of inhibition of SEB-induced IFN-γ production by human PBMC” value stood at 0.158 µg/mL and the “EC50 of inhibition of SEB-induced TNF-α production by human PBMC” value was found to be 0.217 µg/mL. Moreover, the “EC50 of inhibition of SEB-induced IFN-γ production by human PBMC” value in assay [1] turned out to be 0.125 µg/mL. In addition, the Kd in assay [2] is 25 nM.

One may read the Kd as the equilibrium constant for the complex coming apart. A high value points to lower affinity.

Values taken from patent publication US20140072553A1 (MORPHOTEK, published 2014).
